In publication PMC5493754, “Myosin 7 and its adaptors link cadherins to actin” (Nature Communications, 2017):

T1: YFP-Myosin 7a MF2 (human, UniProt Q13402-1 1702-2215)
T1 construct: Myosin 7a, human, MF2, residues 1702-2215 of UniProt Q13402-1; pET14-YFP vector; also called ^YFPM7a MF2; source: E. coli (BL21-AI, BL21 (DE3) Rosetta or BL21-Gold (DE3)), purified (Histrap, CaptoQ, gel filtration)
T1 sequence (looked up): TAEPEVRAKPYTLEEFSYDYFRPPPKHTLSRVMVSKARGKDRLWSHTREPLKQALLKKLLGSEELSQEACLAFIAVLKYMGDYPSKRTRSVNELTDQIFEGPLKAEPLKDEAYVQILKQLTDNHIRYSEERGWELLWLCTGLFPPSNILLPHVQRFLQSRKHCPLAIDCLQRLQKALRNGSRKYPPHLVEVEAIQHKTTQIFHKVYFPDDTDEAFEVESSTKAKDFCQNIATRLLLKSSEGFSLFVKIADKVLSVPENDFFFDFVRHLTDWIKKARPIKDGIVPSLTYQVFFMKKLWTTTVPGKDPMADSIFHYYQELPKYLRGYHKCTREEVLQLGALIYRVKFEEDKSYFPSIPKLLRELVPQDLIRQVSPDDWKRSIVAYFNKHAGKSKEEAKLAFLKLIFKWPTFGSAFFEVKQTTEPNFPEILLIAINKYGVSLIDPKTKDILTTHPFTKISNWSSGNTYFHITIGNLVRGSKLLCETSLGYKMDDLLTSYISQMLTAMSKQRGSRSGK

T2: Myosin 7b MF2 (human, UniProt Q6PIF6 1605-2116)
T2 construct: also called M7b MF2; Myo7b MF2; source: E. coli (BL21-AI, BL21 (DE3) Rosetta or BL21-Gold (DE3)), purified (Histrap, CaptoQ, gel filtration)
T2 sequence (looked up): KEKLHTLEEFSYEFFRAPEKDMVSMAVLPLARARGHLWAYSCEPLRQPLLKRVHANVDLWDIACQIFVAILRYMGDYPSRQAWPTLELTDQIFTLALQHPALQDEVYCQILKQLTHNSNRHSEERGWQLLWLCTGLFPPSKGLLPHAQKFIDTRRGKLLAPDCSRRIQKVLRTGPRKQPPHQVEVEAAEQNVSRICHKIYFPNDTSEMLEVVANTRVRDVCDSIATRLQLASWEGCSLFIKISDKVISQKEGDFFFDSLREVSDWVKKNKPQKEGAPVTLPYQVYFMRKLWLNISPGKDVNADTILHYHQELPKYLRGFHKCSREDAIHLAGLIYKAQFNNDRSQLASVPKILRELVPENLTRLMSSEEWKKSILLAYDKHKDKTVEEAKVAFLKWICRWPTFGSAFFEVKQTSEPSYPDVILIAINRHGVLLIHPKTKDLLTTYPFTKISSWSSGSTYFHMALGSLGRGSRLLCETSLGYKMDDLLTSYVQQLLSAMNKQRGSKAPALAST

T3: Myosin 7b MF2 L2083W (human, UniProt Q6PIF6 1605-2116, L2083W)
T3 construct: Myosin 7b, human, MF2, residues 1605-2116 of UniProt Q6PIF6; also called M7b MF2 L2083W; source: E. coli, purified similarly as wild type (Histrap, CaptoQ, gel filtration)
T3 sequence (looked up): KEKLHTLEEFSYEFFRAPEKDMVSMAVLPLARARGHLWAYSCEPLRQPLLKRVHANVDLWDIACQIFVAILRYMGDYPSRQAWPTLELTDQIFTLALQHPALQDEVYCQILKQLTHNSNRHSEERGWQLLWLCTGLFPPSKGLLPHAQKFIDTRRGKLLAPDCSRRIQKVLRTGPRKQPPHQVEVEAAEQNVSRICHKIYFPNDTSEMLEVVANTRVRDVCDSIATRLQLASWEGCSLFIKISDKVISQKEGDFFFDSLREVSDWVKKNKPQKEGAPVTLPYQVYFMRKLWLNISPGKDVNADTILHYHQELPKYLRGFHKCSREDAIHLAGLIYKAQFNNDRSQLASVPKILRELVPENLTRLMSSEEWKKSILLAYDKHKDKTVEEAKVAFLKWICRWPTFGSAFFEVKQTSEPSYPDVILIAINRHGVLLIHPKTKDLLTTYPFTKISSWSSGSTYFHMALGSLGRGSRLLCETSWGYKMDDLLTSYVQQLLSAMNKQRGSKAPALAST


Columns and labels:
Test in all cases: MST; YFP-fused partner constant at 100 nM, non-fluorescent protein titrated (16 two-fold dilutions); 20 mM Hepes pH 7.0, 100 mM NaCl, 1 mM EGTA, 0.5 mM TCEP, 0.05% Tween 20; Monolith NT.115
Conditions in all cases: both partners purified
YFP-Myosin 7a MF2 = molecular target: T1, YFP-Myosin 7a MF2
Myosin 7b MF2 = molecular target: T2, Myosin 7b MF2
Myosin 7b MF2 L2083W = molecular target: T3, Myosin 7b MF2 L2083W

Row | Kd (YFP-Myosin 7a MF2) | Kd (Myosin 7b MF2) | Kd (Myosin 7b MF2 L2083W) | Binder
1 | 1400 ± 200 nM | – | – | Harmonin-a PDZ3c (non-fluorescent, as used in MST) (domain or fragment, human, UniProt Q9Y6N9-1 428-552, looked up, Harmonin-a1 (USH1C), human, PDZ3 plus C-terminal peptide, residues 428-552 of UniProt Q9Y6N9-1; The methods say only that samples for ITC or crystallisation were digested with TEV protease; also called PDZ3c (isoA); source: E. coli BL21 (DE3) Rosetta, purified (Glutathione Sepharose 4B, size-exclusion chromatography)) QDFRKYEEGFDPYSMFTPEQIMGKDVRLLRIKKEGSLDLALEGGVDSPIGKVVVSAVYERGAAERHGGIVKGDEIMAINGKIVTDYTLAEAEAALQKAWNQGGDWIDLVVAVCPPKEYDDELTFF
2 | – | 1900 ± 600 nM | > 300000 nM | YFP-Harmonin-a PDZ3c (domain or fragment, human, UniProt Q9Y6N9-1 428-552, looked up, Harmonin-a1 (USH1C), human, residues 428-552 of UniProt Q9Y6N9-1; also called ^YFPPDZ3c (isoA); source: E. coli BL21 (DE3) Rosetta, purified (Glutathione Sepharose 4B, size-exclusion chromatography)) QDFRKYEEGFDPYSMFTPEQIMGKDVRLLRIKKEGSLDLALEGGVDSPIGKVVVSAVYERGAAERHGGIVKGDEIMAINGKIVTDYTLAEAEAALQKAWNQGGDWIDLVVAVCPPKEYDDELTFF
